The text below walks through data of doi:10.1101/481457.

The assay addresses human HSF2-YFP (human) (UniProt Q03933). Kind of assay: fluorescent three-hybrid assay.

human HSF2-YFP (human), sequence (Q03933 whole entry): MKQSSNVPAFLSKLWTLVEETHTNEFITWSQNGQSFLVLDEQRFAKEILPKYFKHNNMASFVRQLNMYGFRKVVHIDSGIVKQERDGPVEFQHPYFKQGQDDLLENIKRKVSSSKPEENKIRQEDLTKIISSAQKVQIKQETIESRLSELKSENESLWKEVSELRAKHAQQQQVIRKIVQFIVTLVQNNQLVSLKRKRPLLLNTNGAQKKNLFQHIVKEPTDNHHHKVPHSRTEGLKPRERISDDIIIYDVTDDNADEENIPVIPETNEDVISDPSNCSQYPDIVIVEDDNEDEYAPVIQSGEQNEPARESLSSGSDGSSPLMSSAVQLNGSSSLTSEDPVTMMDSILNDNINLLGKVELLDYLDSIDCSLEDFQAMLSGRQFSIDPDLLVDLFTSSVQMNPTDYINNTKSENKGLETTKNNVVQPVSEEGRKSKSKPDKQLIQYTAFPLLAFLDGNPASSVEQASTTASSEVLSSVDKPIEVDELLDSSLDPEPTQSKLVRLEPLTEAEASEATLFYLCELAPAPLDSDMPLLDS
CBP-HA, Q92793 1-2442 (natural protein), sequence (Q92793 whole entry): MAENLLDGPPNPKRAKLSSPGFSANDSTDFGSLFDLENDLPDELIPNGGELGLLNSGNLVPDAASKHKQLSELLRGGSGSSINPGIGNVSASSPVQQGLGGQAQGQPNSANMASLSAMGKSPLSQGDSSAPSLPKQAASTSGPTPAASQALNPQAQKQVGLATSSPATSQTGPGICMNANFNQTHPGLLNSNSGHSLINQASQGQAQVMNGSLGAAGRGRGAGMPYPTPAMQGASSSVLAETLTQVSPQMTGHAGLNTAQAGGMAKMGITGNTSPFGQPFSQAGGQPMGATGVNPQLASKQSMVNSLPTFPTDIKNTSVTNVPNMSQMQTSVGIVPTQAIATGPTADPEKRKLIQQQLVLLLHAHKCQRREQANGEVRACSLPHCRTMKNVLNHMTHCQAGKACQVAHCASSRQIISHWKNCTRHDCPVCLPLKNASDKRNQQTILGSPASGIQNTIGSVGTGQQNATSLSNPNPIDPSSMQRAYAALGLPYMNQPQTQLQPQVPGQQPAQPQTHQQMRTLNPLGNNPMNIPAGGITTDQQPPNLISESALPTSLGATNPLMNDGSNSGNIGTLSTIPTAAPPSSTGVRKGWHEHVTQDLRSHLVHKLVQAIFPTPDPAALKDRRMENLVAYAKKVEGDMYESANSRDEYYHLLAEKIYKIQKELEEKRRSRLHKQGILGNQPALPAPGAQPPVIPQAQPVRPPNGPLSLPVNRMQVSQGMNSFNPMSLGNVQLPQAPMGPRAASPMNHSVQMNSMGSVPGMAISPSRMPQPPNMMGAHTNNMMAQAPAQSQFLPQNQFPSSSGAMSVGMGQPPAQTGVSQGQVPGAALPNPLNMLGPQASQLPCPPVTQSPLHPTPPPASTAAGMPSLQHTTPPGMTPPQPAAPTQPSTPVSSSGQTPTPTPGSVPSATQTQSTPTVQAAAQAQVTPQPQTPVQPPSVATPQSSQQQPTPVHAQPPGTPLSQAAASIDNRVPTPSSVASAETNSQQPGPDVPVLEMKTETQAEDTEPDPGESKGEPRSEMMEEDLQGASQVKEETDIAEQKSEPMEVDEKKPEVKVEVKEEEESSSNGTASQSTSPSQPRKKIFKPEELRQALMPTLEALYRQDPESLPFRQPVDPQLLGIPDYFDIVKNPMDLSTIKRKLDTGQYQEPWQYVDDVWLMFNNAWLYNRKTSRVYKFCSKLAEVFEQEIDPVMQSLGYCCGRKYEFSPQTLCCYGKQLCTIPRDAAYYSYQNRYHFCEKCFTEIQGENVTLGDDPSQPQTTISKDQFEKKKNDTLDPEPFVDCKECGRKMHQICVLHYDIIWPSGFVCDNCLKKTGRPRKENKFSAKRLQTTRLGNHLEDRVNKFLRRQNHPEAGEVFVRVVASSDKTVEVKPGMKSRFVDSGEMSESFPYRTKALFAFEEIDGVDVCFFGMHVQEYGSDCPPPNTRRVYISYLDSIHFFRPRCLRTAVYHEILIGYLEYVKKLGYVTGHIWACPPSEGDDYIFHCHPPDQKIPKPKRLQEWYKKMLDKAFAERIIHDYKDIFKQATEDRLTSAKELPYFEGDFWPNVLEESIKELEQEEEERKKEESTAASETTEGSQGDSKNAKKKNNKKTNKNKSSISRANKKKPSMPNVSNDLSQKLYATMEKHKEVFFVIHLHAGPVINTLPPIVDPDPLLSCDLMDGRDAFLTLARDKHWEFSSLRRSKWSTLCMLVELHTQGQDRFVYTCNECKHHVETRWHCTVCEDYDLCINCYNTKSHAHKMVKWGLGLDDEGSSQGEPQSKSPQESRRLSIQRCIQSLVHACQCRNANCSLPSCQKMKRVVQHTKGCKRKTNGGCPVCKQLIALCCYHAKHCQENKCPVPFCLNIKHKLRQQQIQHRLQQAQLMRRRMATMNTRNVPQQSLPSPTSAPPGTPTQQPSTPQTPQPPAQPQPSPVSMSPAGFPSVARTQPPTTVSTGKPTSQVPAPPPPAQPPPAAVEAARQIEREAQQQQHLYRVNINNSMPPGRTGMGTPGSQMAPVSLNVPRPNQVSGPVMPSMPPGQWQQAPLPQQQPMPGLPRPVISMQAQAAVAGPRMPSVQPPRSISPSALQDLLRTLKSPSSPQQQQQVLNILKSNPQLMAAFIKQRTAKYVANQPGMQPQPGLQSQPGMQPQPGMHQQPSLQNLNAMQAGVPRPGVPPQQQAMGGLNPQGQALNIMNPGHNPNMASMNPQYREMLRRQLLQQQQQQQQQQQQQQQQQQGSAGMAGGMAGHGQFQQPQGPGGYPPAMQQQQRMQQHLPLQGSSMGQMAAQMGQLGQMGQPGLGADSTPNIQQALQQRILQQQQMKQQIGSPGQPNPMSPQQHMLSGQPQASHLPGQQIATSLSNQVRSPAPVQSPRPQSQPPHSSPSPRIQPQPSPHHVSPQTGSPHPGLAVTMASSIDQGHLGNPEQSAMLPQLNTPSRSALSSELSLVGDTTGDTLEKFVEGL

“endogenous CBP of BHK cells (natural protein)” yielded a percent of cells showing co-recruitment with HSF2-YFP of 43.9%.
With CBP-HA, Q92793 1-2442 (natural protein), the percent of cells showing co-recruitment to the HSF2-YFP focus came to 68.4%.
On the same count and under the same terms, under EP300-HA, Q09472 1-2414 stands 48.6%.
